The record followed here is PMC11705074.

What is called Kd is the equilibrium constant for the complex coming apart. Low readings indicate a tighter complex, high ones a looser complex.

Where two headings read alike, the source gives them in different places.

The target of series [1] is T1, HhpR (Pyrococcus yayanosii A1, UniProt F8AFU3 1-281).
T1 sequence: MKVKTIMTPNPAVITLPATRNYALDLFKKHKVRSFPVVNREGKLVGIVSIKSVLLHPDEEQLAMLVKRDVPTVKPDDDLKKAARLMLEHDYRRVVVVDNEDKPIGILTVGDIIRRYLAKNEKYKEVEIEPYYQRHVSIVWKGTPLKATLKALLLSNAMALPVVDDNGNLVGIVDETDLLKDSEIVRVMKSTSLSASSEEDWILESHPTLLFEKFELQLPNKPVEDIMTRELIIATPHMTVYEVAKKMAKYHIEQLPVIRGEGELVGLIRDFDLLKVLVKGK
Nature of the series: fluorescence polarization.

Series [2] has as its target T1, HhpR. Nature of the series: fluorescence polarization. This is another data set of the same source. A general note: In fluorescence polarisation assays a small probe gives low polarisation when free and higher when bound to something large.

B1: 44-bp Phhp (dsDNA)
DNA 1: CATATAAAAATTGTTGGGCAAATCTGCCCAGAAAAGCTTAAAAG
DNA 2: CTTTTAAGCTTTTCTGGGCAGATTTGCCCAACAATTTTTATATG
For B1, the Kd with HhpR [1] was 650 ± 370 nM; in the series with HhpR [2], 1900 ± 400 nM.
